Test results reported in US6660837B1, “Modified protein derived from protein kinase N” (Kirin Beer Kabushiki Kaisha, priority 1995, dated 2003).
Values belong to the molecule of their own block, whether it stands above or below them.

How the values were obtained:
RhoA^Val14 CLVL^− = target: T1, RhoA^Val14 CLVL^− (Homo sapiens, UniProt P61586, G14V); assay: Yeast two-hybrid, truncated PKN with RhoA^Val14CLVL^−; type: binding; settings: yeast L40
T1 construct: expressed in transfected cells; host or cells: yeast strain L40
Source text: The cDNA fragments encoding various length of human PKN were inserted into the vector pBTM116 (Example 7) in frame with the upstream LexA DNA-binding domain sequences or the vector pVP16 (Example 7) in frame with the upstream VP16 transcription activation domain sequences. The cDNA fragments encoding human RhoA, RhoA^Val14, and RhoA^Ala37 were obtained by digesting pGEX-RhoA, pGEX-RhoA^Val14, and pGEX-RhoA^Ala37 (Example 1) with restriction enzymes, respectively, then cloned into pBTM116 and pVP16.
The expression plasmids were transfected into yeast L40 cells and plated on semi-solid media lacking tryptophan and leucine. Interaction was examined using a filter lift assay for the β-galactosidase activity in the same manner as in Example 6. […]

[1] = target: T2, in vitro translated PKNN2 (Homo sapiens, UniProt Q16512); assay: In vitro binding of GST-HuActSkl fragments to PKNN2; settings: resistant to 0.5% Triton X-100/0.5 M NaCl wash
T2 construct: made in house; host or cells: in vitro translation in rabbit reticulocyte lysate (Promega)
Experimental: In vitro transcription for the N-terminal region of PKN (the amino acid sequence 1-474, this region being designated as PKNN2 (Example 8)) was performed as described in Example 8. For in vitro translation, cRNAs were translated in rabbit reticulocyte lysate (Promega) in the presence of [^35S] methionine as described in Example 8.
For in vitro binding experiment, 2 μl of in vitro translated PKNN2 was mixed with 5 μg of each GST-α-actinin fusion protein or with 25 μg of GST alone in 400 μl of GST binding buffer (20 mM Tris/HCl at pH 7.5, 0.5 mM DTT, 150 mM NaCl, 0.05% Triton-X100, 1 mM EDTA, 1 μg/ml leupeptin) and incubated for 1 hr at 4° C. After addition of 25 μl of glutathione-Sepharose 4B pretreated with 10 mg/ml of E. coli extract to block nonspecific binding, the binding reaction was continued for additional 30 min at 4° C. The glutathione-Sepharose 4B was then washed four times in GST washing buffer (20 mM Tris/HCl at pH 7.5, 0.5 mM DTT, 1 mM EDTA, 1 μg/ml leupeptin) containing 0.5 M NaCl and 0.5% Triton X-100, and further washed with GST washing buffer. Bound proteins were eluted with GST elution buffer (100 mM Tris/HCl at pH 7.5, 10 mM glutathione, 120 mM NaCl, 1 mM EDTA, 0.5 mM DTT, 1 μg/ml leupeptin) and were subjected to SDS-PAGE. The binding was visualized and quantitated by an imaging analyzer (FUJI BAS1000).

PKN = target: T3, PKN (Rattus norvegicus, UniProt Q63433); assay: Phosphorylation of recombinant GST-NF domains by PKN; type: biochemical; settings: GST-head-rod domain of each NF subunit
T3 construct: The purified PKN (1 ng) from rat testis cytosol; from tissue; host or cells: rat testis (cytosol / soluble fraction)
Experimental: (§1) Soluble cytosolic extract of spinal cord or purified NF proteins were boiled for 5 min to destroy endogenous protein kinase activity prior to their use as phosphate acceptors. The phosphorylation of NF preparations was carried out at 30° C. in an assay mixture containing 20 mM Tris/HCl at pH 7.5, 8 mM MgCl2, 100 μM ATP, 185 kBq of [γ-^32P]ATP, each subunit of NF, 20 ng/ml of purified PKN from rat testis, and with/without 40 μM arachidonic acid as indicated in each experiment. Reactions were terminated after various times by the addition of an equal volume of Laemli's sample buffer, and separation was performed on 7% SDS-PAGE. The gels were dried under vacuum and exposure to BAS1000 bio-imaging analyzer. Dephosphorylation of NF proteins was conducted with calf intestine alkaline phosphatase according to a method described in Carden, M. J. et al., J. Biol. Chem. 260, 9805-9817 (1985) and terminated after boiling for 5 min.
(2) Phosphorylation of Recombinant NF by PKN To identify the region containing the phosphorylation site of NF by PKN, GST-head-rod and -tail domain of each subunit of NFs were bacterially synthesized (Example 8), and subjected to in vitro phosphorylation assay in the same manner as described above. […] The GST-tail domain of each subunit was not labeled at all. PKN also phosphorylated the GST-head-rod domain of vimentin (data not shown).

[2] = target: T4, purified PKN from rat testis (Rattus norvegicus, UniProt Q63433); assay: Phosphorylation of native NF by PKN; type: biochemical; settings: native bovine NF, with arachidonic acid; estimated by image quant
T4 construct: The purified PKN (1 ng) from rat testis cytosol; from tissue; host or cells: rat testis (cytosol / soluble fraction)
Experimental: Native NFs were prepared from bovine spinal cords according to a method described in Hisanaga, S. & Hirokawa, N., J. Mol. Biol. 202, 297-305 (1988). Kinase assay was carried out according to the following method.
as §1

T2 sequence (Q16512 1-474): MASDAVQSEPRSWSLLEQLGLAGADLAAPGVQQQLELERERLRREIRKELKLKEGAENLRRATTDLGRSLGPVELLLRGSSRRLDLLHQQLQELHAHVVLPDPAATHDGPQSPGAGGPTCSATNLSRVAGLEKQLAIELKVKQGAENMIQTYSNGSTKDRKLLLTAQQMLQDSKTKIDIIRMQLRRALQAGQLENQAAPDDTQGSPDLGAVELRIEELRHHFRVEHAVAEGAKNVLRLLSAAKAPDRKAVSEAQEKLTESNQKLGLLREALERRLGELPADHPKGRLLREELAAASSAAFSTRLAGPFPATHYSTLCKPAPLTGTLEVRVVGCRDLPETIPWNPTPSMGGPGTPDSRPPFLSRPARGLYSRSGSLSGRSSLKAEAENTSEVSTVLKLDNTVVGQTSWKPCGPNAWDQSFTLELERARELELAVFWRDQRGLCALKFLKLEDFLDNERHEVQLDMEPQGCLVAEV
T3 sequence (Q63433 whole entry, the tested form may be a part): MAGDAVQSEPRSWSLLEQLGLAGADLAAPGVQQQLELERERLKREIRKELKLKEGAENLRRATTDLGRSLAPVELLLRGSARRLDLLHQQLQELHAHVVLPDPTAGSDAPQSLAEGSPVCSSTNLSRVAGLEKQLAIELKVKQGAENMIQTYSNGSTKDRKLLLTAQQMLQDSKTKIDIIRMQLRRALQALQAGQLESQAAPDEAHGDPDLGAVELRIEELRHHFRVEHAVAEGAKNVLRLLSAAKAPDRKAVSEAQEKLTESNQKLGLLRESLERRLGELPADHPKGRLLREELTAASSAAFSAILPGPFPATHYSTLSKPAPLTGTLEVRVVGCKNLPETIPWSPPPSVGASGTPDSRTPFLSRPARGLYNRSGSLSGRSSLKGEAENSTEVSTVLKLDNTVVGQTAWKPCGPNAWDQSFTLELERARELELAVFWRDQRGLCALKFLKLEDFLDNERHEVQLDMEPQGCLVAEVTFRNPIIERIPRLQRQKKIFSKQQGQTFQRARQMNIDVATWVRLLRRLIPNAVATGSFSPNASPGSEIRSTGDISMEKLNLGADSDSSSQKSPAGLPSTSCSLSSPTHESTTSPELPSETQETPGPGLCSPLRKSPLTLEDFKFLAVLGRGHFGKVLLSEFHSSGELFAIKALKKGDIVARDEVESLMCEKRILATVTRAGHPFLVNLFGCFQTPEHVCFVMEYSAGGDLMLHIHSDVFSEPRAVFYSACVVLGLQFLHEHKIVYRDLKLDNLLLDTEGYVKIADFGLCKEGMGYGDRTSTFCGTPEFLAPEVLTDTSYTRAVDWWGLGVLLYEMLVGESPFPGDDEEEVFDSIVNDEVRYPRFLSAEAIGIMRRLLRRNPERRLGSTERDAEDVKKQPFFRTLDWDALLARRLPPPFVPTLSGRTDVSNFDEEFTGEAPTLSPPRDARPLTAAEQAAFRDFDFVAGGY
T4 sequence (Q63433 whole entry): as the sequence (Q63433 whole entry, the tested form may be a part) above
T1 sequence (P61586 1-189 G14V): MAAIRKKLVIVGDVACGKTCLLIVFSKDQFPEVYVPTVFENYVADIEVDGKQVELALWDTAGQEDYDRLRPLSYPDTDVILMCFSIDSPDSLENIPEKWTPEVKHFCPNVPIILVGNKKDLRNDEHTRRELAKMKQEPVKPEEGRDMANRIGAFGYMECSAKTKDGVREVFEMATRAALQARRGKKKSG

- interaction with RhoA^Val14 CLVL^− (β-galactosidase filter assay) (RhoA^Val14 CLVL^−): interacted
B1: amino acid sequence 3-135: truncated human PKN, amino acid sequence 3-135 in SEQ ID NO: 1, two-hybrid fusion (protein, UniProt Q16512 3-135, looked up, fragment)
chain: SDAVQSEPRSWSLLEQLGLAGADLAAPGVQQQLELERERLRREIRKELKLKEGAENLRRATTDLGRSLGPVELLLRGSSRRLDLLHQQLQELHAHVVLPDPAATHDGPQSPGAGGPTCSATNLSRVAGLEKQL
modifications: two-hybrid fusion

- binding of in vitro translated PKNN2 to the fragment [1]: strongly bound
B2: HuActSkl (423-653): human skeletal muscle type α-actinin fragment, GST fusion (protein)
chain: ILLQKDYESASLTEVRALLRKHEAFESDLAAHQDRVEQIAAIAQELNELDYHDAVNVNDRCQKICDQWDRLGTLTQKRREALERMEKLLETIDQLHLEFAKRAAPFNNWMEGAMEDLQDMFIVHSIEEIQSLITAHEQFKATLPEADGERQSIMAIQNEVEKVIQSYNIRISSSNPYSTVTMDELRTKWDKVKQLVPIRDQSLQEELARQHANERLRRQFAAQANAIGPWI
modifications: left off: a dimerising Fc or GST
notes: human skeletal muscle type α-actinin fragment, GST fusion

- relative 32P incorporation into GST-head-rod domain (ratio NFH:NFM:NFL) (PKN): 2
- extent of maximal phosphorylation by PKN per mol subunit of protein [2]: about 1 mol/mol
B3: NFL: neurofilament subunit L; native bovine in b342, GST-head-rod domain fusion in b344 (protein, UniProt P02548 2-555, looked up)
Neurofilament light …: SSFSYEPYYSTSYKRRYVETPRVHISSVRSGYSTARSAYSSYSAPVSSSLSVRRSYSSSSGSLMPSLESLDLSQVAAISNDLKSIRTQEKAQLQDLNDRFASFIERVHELEQQNKVLEAELLVLRQKHSEPSRFRALYEQEIRDLRLAAEDATNEKQALQGEREGLEETLRNLQARYEEEVLSREDAEGRLMEARKGADEAALARAELEKRIDSLMDEIAFLKKVHEEEIAELQAQIQYAQISVEMDVSSKPDLSAALKDIRAQYEKLAAKNMQNAEEWFKSRFTVLTESAAKNTDAVRAAKDEVSESRRLLKAKTLEIEACRGMNEALEKQLQELEDKQNADISAMQDTINKLENELRTTKSEMARYLKEYQDLLNVKMALDIEIAAYRKLLEGEETRLSFTSVGSLTTGYTQSSQVFGRSAYGGLQTSSYLMSARSFPSYYTSHVQEEQIEVEETIEAAKAEEAKDEPPSEGEAEEEEKEKEEAEAEAEAEAEAEAEEEEGAQEEEAAKEDAEEAKEEEGGEGEEAEETKEAEEEEKKDEGAGEEQATKKKD

- binding of in vitro translated PKNN2 to the fragment [1]: strongly bound
B4: HuActSkl (653-837): human skeletal muscle type α-actinin fragment, GST fusion (protein)
chain: IQNKMEEIARSSIQITGALEDQMNQLKQYEHNIINYKNNIDKLEGDHQLIQEALVFDNKHTNYTMEHIRVGWELLLTTIARTINEVETQILTRDAKGITQEQMNEFRASFNHFDRRKNGLMDHEDFRACLISMGYDLGEAEFARIMTLVDPNGQGTVTFQSFIDFMTRETADTDTAEQVIASFRI
modifications: left off: a dimerising Fc or GST
notes: as for B2

- relative 32P incorporation into GST-head-rod domain (ratio NFH:NFM:NFL) (PKN): 10
- extent of maximal phosphorylation by PKN per mol subunit of protein [2]: about 6 mol/mol
B5: NFM: neurofilament subunit M; native bovine in b342, GST-head-rod domain fusion in b344 (protein, UniProt O77788 2-926, looked up)
Neurofilament medium …: SYTLDSLGNPSAYRRVTETRSSFSRISGSPSSGFRSQSWSRGSPSTVSSSYKRSALAPRLTYSSAMLSSAESSLDFSQSSSLLDGGSGPGGDYKLSRSNEKEQIQGLNDRFAGYIEKVHYLEQQNKEIEAEIQALRQKQASHAQLGDAYDQEIRELRATLEMVNHEKAQVQLDSDHLEEDIHRLKERFEEEARLRDDTEAAIRALRKDIEESSLVKVELDKKVQSLQDEVAFLRSNHEEEVADLLAQIQASHITVERKDYLKTDISTALKEIRSQLESHSDQNMHQAEEWFKCRYAKLTEAAEQNKEAIRSAKEEIAEYRRQLQSKSIELESVRGTKESLERQLSDIEERHNHDLSSYQDTIQQLENELRGTKWEMARHLREYQDLLNVKMALDIEIAAYRKLLEGEETRFSTFAGSITGPLYTHRQPSIAISSKIQKTKVEAPKLKVQHKFVEEIIEETKVEDEKSEMEEALTAITEELAVSVKEEVKEEEAEEKEEKEEAEEEVVAAKKSPVKATAPELKEEEGEKEEEEGQEEEEEEEEAAKSDQAEEGGSEKEGSSEKEEGEQEEEGETEAEGEGEEAAAEAKEEKKMEEKAEEVAPKEELAAEAKVEKPEKAKSPVAKSPTTKSPTAKSPEAKSPEAKSPTAKSPTAKSPVAKSPTAKSPEAKSPEAKSPTAKSPTAKSPAAKSPAPKSPVEEVKPKAEAGAEKGEQKEKVEEEKKEAKESPKEEKAEKKEEKPKDVPEKKKAESPVKAESPVKEEVPAKPVKVSPEKEAKEEEKPQEKEKEKEKVEEVGGKEEGGLKESRKEDIAINGEVEGKEEEQETKEKGSGGEEEKGVVTNGLDVSPGDEKKGGDKSEEKVVVTKMVEKITSEGGDGATKYITKSVTVTQKVEEHEETFEEKLVSTKKVEKVTSHAIVKEVTQSD

- binding of in vitro translated PKNN2 to the fragment [1]: not
B6: HuActSkl (604-719): human skeletal muscle type α-actinin fragment, GST fusion (protein)
chain: MDELRTKWDKVKQLVPIRDQSLQEELARQHANERLRRQFAAQANAIGPWIQNKMEEIARSSIQITGALEDQMNQLKQYEHNIINYKNNIDKLEGDHQLIQEALVFDNKHTNYTMEH
modifications: left off: a dimerising Fc or GST
notes: as for B2

- binding of in vitro translated PKNN2 to the fragment [1]: strongly bound
B7: HuActSkl (486-607): human skeletal muscle type α-actinin fragment, spectrin-like repeat 3, GST fusion (protein, UniProt P35609 486-607, looked up, fragment)
chain: ICDQWDRLGTLTQKRREALERMEKLLETIDQLHLEFAKRAAPFNNWMEGAMEDLQDMFIVHSIEEIQSLITAHEQFKATLPEADGERQSIMAIQNEVEKVIQSYNIRISSSNPYSTVTMDEL
modifications: GST fusion
notes: human skeletal muscle type α-actinin fragment, spectrin-like repeat 3, GST fusion
